Laboratory results from patent publication US20250235516A1 (UNIVERSITY OF SOUTH FLORIDA, published 2025).

T1: neutrophil elastase (human, UniProt P08246 30-247, limits assumed)
T1 sequence (looked up): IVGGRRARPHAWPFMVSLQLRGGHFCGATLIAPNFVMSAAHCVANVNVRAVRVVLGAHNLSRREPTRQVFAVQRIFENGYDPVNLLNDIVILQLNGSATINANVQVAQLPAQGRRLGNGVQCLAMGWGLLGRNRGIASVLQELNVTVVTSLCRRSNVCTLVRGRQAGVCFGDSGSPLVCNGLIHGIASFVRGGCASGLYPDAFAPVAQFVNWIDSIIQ


Assays:
[1] = target: Matrix metalloproteinase-2 (UniProt P08253 110-465, limits assumed); experiment: cell-based or functional assay
[2] = target: T1, neutrophil elastase; experiment: cell-based or functional assay

Matrix metalloproteinase-2, sequence (P08253 110-465 limits assumed): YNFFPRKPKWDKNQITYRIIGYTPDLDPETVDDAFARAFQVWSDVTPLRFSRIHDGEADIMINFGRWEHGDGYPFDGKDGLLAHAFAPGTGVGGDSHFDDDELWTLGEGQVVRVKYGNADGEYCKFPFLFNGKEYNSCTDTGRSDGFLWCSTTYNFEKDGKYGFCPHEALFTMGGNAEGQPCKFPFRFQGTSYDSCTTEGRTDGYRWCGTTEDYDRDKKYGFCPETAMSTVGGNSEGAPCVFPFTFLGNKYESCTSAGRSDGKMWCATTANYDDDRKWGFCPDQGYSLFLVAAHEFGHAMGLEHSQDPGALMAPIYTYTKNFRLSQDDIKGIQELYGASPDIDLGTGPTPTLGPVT

Row | Binder | IC50 of MMP-2 inhibition (kinetic colorimetric substrate assay) [1] | IC50 of NE inhibition (kinetic colorimetric substrate assay) [2] | % inhibition of NE near the IC50 of the dual inhibitor [2]
1 | PMPD2-L10FLAG-APP-IP (designed binder) EEKCTPGQVKQQDCNTCTCTPTGVWGCTLMGCQPAVPGVGVPGVGVPGLGVPGVGVPGVGVPGVGVPGVGVPGLGVPGVGVPGVGVPGVGVPGVGVPGLGVPGVGVPGVGVPGVGVPGVGVPGLGVPGVGVPGVGVPGVGVPGVGVPGLGVPGVGVPGVGVPGVGVPGVGVPGLGVPGVGVPGVGVPGVGVPGVGVPGLGVPGVGVPGVGVPGVGVPGVGVPGLGVPGVGVPGVGVPGVGVPGVGVPGLGVPGVGVPGVGVPGVGVPGVGVPGLGVPGVGVPGVGDYKDDDDKISYGNDALMP | 40 µg/mL | 0.00085 µg/mL | 
2 | PMPD2-L10FLAG (designed binder) EEKCTPGQVKQQDCNTCTCTPTGVWGCTLMGCQPAVPGVGVPGVGVPGLGVPGVGVPGVGVPGVGVPGVGVPGLGVPGVGVPGVGVPGVGVPGVGVPGLGVPGVGVPGVGVPGVGVPGVGVPGLGVPGVGVPGVGVPGVGVPGVGVPGLGVPGVGVPGVGVPGVGVPGVGVPGLGVPGVGVPGVGVPGVGVPGVGVPGLGVPGVGVPGVGVPGVGVPGVGVPGLGVPGVGVPGVGVPGVGVPGVGVPGLGVPGVGVPGVGVPGVGVPGVGVPGLGVPGVGVPGVGDYKDDDDK |  | 0.00708 µg/mL | 
3 | APP-IP-L10FLAG (designed binder) ISYGNDALMPVPGVGVPGVGVPGLGVPGVGVPGVGVPGVGVPGVGVPGLGVPGVGVPGVGVPGVGVPGVGVPGLGVPGVGVPGVGVPGVGVPGVGVPGLGVPGVGVPGVGVPGVGVPGVGVPGLGVPGVGVPGVGVPGVGVPGVGVPGLGVPGVGVPGVGVPGVGVPGVGVPGLGVPGVGVPGVGVPGVGVPGVGVPGLGVPGVGVPGVGVPGVGVPGVGVPGLGVPGVGVPGVGVPGVGVPGVGVPGLGVPGVGVPGVGDYKDDDDK | 50 µg/mL |  | 8.4%
